Assay results taken from US20230257726A1 (published 2023).

Molecular target: Wild-type ACE2(740)-Fc (human)
Experiment: BLI, ACE2-Fc on tips, RBD in solution

Sequence of Wild-type ACE2(740)-Fc (human) (chain, as listed by the source): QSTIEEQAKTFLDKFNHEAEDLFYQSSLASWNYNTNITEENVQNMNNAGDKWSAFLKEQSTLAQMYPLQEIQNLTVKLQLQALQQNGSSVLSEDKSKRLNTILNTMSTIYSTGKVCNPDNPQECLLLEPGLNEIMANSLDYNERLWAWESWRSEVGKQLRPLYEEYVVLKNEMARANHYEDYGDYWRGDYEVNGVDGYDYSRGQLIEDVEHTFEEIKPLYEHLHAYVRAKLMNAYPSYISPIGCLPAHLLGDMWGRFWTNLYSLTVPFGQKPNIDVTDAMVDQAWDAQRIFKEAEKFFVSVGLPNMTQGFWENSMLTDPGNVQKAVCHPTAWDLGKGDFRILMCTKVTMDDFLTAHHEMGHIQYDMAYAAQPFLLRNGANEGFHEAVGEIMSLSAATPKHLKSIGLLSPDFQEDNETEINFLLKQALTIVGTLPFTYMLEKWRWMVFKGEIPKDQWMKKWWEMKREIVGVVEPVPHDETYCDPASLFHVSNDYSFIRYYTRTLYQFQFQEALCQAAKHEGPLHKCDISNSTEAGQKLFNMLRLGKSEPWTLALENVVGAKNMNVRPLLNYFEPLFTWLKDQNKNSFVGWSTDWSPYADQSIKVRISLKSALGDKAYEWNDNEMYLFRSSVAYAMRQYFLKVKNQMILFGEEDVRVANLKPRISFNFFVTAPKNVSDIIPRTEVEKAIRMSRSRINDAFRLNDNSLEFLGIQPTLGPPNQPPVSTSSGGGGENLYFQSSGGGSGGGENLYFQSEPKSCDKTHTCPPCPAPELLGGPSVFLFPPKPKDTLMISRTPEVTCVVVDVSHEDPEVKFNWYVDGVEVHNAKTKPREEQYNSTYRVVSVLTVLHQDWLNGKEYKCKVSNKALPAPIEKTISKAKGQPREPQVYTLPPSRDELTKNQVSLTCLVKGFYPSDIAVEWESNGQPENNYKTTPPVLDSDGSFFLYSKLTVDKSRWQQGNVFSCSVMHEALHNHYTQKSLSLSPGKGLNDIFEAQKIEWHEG

B1: Human coronavirus NL63 (HCoV-NL63) spike RBD (ligand)
chain: QHTDINFTATASFGGSCYVCKPHQVNISLNGNTSVCVRTSHFSIRYIYNRVKSGSPGDSSWHIYLKSGTCPFSFSKLNNFQKFKTICFSTVEVPGSCNFPLEATWHYTSYTIVGALYVTWSEGNSITGVPYPVSGI
Q: How did the Kd turn out when B1 was run?
A: 22 nM
